# Results reported in patent US20260242834A1, “ENZYMES, POLYNUCLEOTIDES ENCODING SAME, AND METHODS OF USING SAME FOR PRODUCING MESCALINE” (YEDA RESEARCH AND DEVELOPMENT CO. LTD., priority 2023, published 2026).
# Legend:
# [1] = target: 5-HT2A serotonin receptor (Homo sapiens, UniProt P28223); details: 5-HT2A serotonin receptor agonist, cited from earlier work
# N. benthamiana leaves = experiment: Transient expression in N. benthamiana leaves by agroinfiltration; format: cell-based, Nicotiana benthamiana; details: tyramine 4 to dopamine 3 and 3-MeO-tyramine 7 to 3,4-diOH-5-MeO-phenethylamine 6
# From the text: TyDC2, CYP1-12, PPO1, MT1-4, OMT1,5,10,11 and the previously characterized BvCYP76AD6 were amplified and cloned in pAlpha2-NPT II-Ubq10-CCD-Ter10 vector digested with BsaI using ClonExpress II One Step Cloning kit (Vazyme). For BvCYP76AD6 the inventors used stocks of previously transformed bacteria containing the specific gene (Polturak et al., 2016; New Phyol.). All plasmids were sequenced and transformed into Agrobacterium tumefaciens strain GV3101 by electroporation. A. tumefaciens harboring the overexpression constructs were grown overnight at 28° C. in Luria-Bertani (LB) medium in the presence of kanamycin and gentamycin. Bacterial cells were collected by centrifugation, washed, and resuspended in infiltration buffer (10 mM MES, 2 mM MgCl2, 2 mM Na3PO4, 0.5% glucose and 100 mM acetosyringone) to OD600=0.8. Individual and/or equal volumes of A. tumefaciens suspension with different expression vectors were combined to obtain the desired gene combinations and incubated for 2 h at room temperature. The solutions were infiltrated into 4- or 5-week-old N. benthamiana leaves from the abaxial side using a 1-ml needleless syringe. […] Leaf samples were flash frozen and extracted as previously described with 300 μl ice-cold methanol with 0.1% formic acid and analyzed via LC-MS. […]
# 3-MeO-tyramine 7 = experiment: Heterologous expression in yeast supplemented with 3-MeO-tyramine 7; format: cell-based, S. cerevisiae; details: two days from galactose induction; compared with LwCYP84A220
# [2] = OMT in vitro assays with lysates from transformed E. coli in the presence of SAM; format: biochemical, Lophophora williamsii (Peyote); details: substrates 3, 6 or 9
# Sequence of 5-HT2A serotonin receptor (P28223 whole entry): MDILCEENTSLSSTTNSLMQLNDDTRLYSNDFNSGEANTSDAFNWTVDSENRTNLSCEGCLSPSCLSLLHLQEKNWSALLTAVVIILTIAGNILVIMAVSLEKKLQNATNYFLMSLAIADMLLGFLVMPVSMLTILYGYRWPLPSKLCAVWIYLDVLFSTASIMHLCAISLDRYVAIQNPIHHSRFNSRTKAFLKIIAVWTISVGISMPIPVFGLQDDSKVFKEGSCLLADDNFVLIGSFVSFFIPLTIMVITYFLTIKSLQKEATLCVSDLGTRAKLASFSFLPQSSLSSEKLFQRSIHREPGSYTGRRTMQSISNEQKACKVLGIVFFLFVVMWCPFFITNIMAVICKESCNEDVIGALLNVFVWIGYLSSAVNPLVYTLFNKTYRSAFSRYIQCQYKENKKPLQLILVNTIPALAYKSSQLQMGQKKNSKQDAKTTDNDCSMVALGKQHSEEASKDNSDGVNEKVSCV
molecule,measurement,setting,value
COc1cc(CCN)cc(OC)c1OC [Mescaline],times less potent effects than LSD,[1]; compared with LSD,"1,000-3,000 times"
same,times less potent than psilocybin,[1]; compared with psilocybin,30 times
"LwCYP12: Peyote CYP76AD-subfamily cytochrome P450 hydroxylase (protein, listed as Lophophora williamsii) MGYYAIFAVVLPFLWTCFYLLKLNPTSKLTSTIRLPPGPRPLPIIGNLHQLGERPHRTLANLAKVYGPIISLKFGSITTIAVSSADVAKEMFQKHDLALASRKVPAAVRANGHDNFSVAWLPVTPKWRFLRKISAIQLFSTQRLDARQSLRQAKVVELLDYIKARSNAGEPVDIGEAAFTTSLNLLSNTFFSMDLASYSSAASGEFKELVWKIMEEIGKPNLADCFPLVGFISRMSVNRELMGYGNKLNEVFAEIIEKRLSAANSSEGRGNGDVLDTLLRIMEEDDSELSLDDIMHLLMDFFTAGTDTTSSTLEWAMTELLHNPEKMAKAQAELEQVLGKDTVSIQESDIAKLLYLQATVKETLRMHPPTVFLLPRKADSDIDLYGHLVPKNAQVFVNLWAISYDPSTWENPDLFSPERFLDQDIDMKGQDFGFIPFGAGRRICPGLTLAYRMLNLMLGTLIHVFNWKLGDGLSREDLDMTDKFGITIQKAKPLRAIPILK",hydroxylation activity in planta,N. benthamiana leaves,regioselectively catalyzes the two meta hydroxylations
same,"catalytic activity for the production of 3,4-diOH-5-MeO-phenethylamine 6",3-MeO-tyramine 7,superior catalytic activity
"OMT5: Peyote O-methyltransferase (protein, listed as Lophophora williamsii) MGSASGSAERTQMGEDEACSFAMTITSGSVPPMVLKAVIELDVLEIIKRAGPGAHLSPAEIAAQLPTTNPGAAAMLDRMLRLLASYDVLSYSLHTLPDGRVERLYGLAPVCQFLTNNEDGVTLSALSLMNQDKVLMESWYHLKDAVLDGGIPFNKAYGMTAFEYHGTDPRFNKVFNNGMSNHSTITMKKLLENYKGFEGVSTLVDVGGGTGATLNMIISKHPTIKGINFDLPHVIEDAPTYPGVEHIGGDMFVSVPKGDAIFMKWICHDWSDEHCLKFLKNCYAALADHGKVIVCEYILPVAPETNHAARTVFHVDAIMLAHNPGGKERTEQEFESLAKGAGFEGFRVACSAYDTKVMEFLKNN",O-methylation regioselectivity,[2],O-methylated the two meta hydroxyl groups
